Assay results published in US20130177979A1, “METHODS AND COMPOSITIONS FOR CELL PERMEABLE STAT3 INHIBITOR” (University of Central Florida Research Foundation, Inc., priority 2010, published 2013).

Legend:
PpYLKTK (pY705 Stat3) = target: T1, PpYLKTK (pY705 Stat3) (Homo sapiens, UniProt P40763); test: SPR binding to Stat3-derived pTyr705 peptide PpYLKTK; details: immobilized on sensor chip, PpYLKTK as analyte
T1 construct: the Stat3-derived pTyr705 peptide, PpYLKTK
Description: (§1) Association and dissociation measurements were taken and the affinities were determined using Qdat software.
(§2) Surface plasmon resonance analysis. […] Various concentrations of pTyr peptides (analyte) in running buffer (1×PBS, 0.5% DMSO) were passed over the sensor chip to produce response signals. The response signals were referenced by subtracting the response generated by passing across a surface without the analytes. The association and dissociation rate constants were calculated using the Qdat software. The ratio of the association and dissociation rate constants was determined as the affinity (KD).

PEpYINQS (pY1068EGFR) = target: T2, PEpYINQS (pY1068EGFR) (Homo sapiens, UniProt P00533); test: SPR binding to EGFR pY1068 peptide PEpYINQS; details: immobilized on sensor chip, PEpYINQS as analyte
T2 construct: the pY1068 of EGFR, PEpYINQS
Description: as §1, §2

PVpYHNQP (pY1086EGFR) = target: T3, PVpYHNQP (pY1086EGFR) (Homo sapiens, UniProt P00533); test: SPR binding to EGFR pY1086 peptide PVpYHNQP; details: immobilized on sensor chip, PVpYHNQP as analyte
T3 construct: the pY1086 peptide of EGFR, PVpYHNQP
Description: as §1, §2

GpYIKTE (pY701Stat1) = target: T4, GpYIKTE (pY701Stat1) (Homo sapiens, UniProt P42224); test: SPR binding to Stat1 pY701 peptide GpYIKTE; details: immobilized on sensor chip, GpYIKTE as analyte
T4 construct: the Stat1 pY701 peptide, GpYIKTE
Description: as §1, §2

GpYVKPQ (pY694Stat5) = target: T5, GpYVKPQ (pY694Stat5) (Homo sapiens, UniProt P42229); test: SPR binding to Stat5 pTyr peptide GpYVKPQ; details: immobilized on sensor chip, GpYVKPQ as analyte
T5 construct: the pTyr peptide of Stat5, GpYVKPQ
Description: as §1, §2

GpYLPQTV (IL-6R/gp130) = GpYLPQTV (IL-6R/gp130) (Homo sapiens, UniProt P40189, S904G); details: SPR; SPI, Stat3 SH2 domain or Stat3 immobilized on sensor chip, GpYLPQTV as analyte
Description: as §1, §2

Substance: Stat3 SH2 domain: Purified His-tagged Stat3 SH2 domain, recombinant protein expressed in BL21(DE3) cells (FISKERERAILSTKPPGTFLLRFSESSK)
- Kd (PpYLKTK (pY705 Stat3)): 1.6 µM
- Kd (PEpYINQS (pY1068EGFR)): 0.4 µM
- Kd (PVpYHNQP (pY1086EGFR)): 2.6 µM
- Kd (GpYIKTE (pY701Stat1)): 6.6 µM
- Kd (GpYVKPQ (pY694Stat5)): 5200 µM
- Kd (GpYLPQTV (IL-6R/gp130)): 0.03 µM

Substance: full-length Stat3: Purified His-tagged Stat3 protein, recombinant, expressed in BL21(DE3) cells
- Kd (PpYLKTK (pY705 Stat3)): 0.9 µM
- Kd (GpYIKTE (pY701Stat1)): 4.4 µM
- Kd (GpYVKPQ (pY694Stat5)): 1200 µM
- Kd (GpYLPQTV (IL-6R/gp130)): 0.02 µM
